Assay results reported in patent US20160264649A1.

How the values were obtained:
Assay in all cases: cell-based or functional assay
[1] = target: HIV-1 Env of isolate MGRM-D-021 (subtype D) (HIV-1)
[2] = target: HIV-1 Env of isolate MGRM-D-028 (subtype D) (HIV-1)
[3] = target: HIV-1 Env of isolate MGRM-AE-002 (subtype AE) (HIV-1)
[4] = target: HIV-1 Env of isolate MGRM-AE-001 (subtype AE) (HIV-1)
[5] = target: HIV-1 Env of isolate MGRM-F1-004 (subtype F) (HIV-1)
[6] = target: HIV-1 Env of isolate 92WR026 (subtype A) (HIV-1)
[7] = target: HIV-1 Env of isolate VLGCA1 (subtype A) (HIV-1)
[8] = target: HIV-1 Env of isolate MGRM-D-003 (subtype D) (HIV-1)
[9] = target: HIV-1 Env of isolate 92UG031 (subtype A) (HIV-1)
[10] = target: HIV-1 Env of isolate MGRM-AE-004 (subtype AE) (HIV-1)
[11] = target: HIV-1 Env of isolate 92WR024 (subtype A) (HIV-1)
[12] = target: HIV-1 Env of isolate MGRM-F1-016 (subtype F) (HIV-1)
[13] = target: HIV-1 Env of isolate MGRM-AE-005 (subtype AE) (HIV-1)
[14] = target: HIV-1 Env of isolate MGRM-F1-018 (subtype F) (HIV-1)
[15] = target: HIV-1 Env of isolate MGRM-F1-010 (subtype F) (HIV-1)
[16] = target: HIV-1 Env of isolate MGRM-F1-023 (subtype F) (HIV-1)
[17] = target: HIV-1 Env of isolate MGRM-D-026 (subtype D) (HIV-1)
[18] = target: HIV-1 Env of isolate MGRM-F1-012 (subtype F) (HIV-1)
[19] = target: HIV-1 Env of isolate MGRM-AE-003 (subtype AE) (HIV-1)
[20] = target: HIV-1 Env of isolate MGRM-AE-006 (subtype AE) (HIV-1)
[21] = target: HIV-1 Env of isolate 93WR029 (subtype A) (HIV-1)
[22] = target: HIV-1 Env of isolate MGRM-D-029 (subtype D) (HIV-1)
[23] = target: HIV-1 Env of isolate MGRM-F1-022 (subtype F) (HIV-1)
[24] = target: HIV-1 Env of isolate MGRM-D-022 (subtype D) (HIV-1)
[25] = target: HIV-1 Env of isolate 92TH021 (subtype AE) (HIV-1)
[26] = target: HIV-1 Env of isolate MGRM-D-012 (subtype D) (HIV-1)
[27] = target: HIV-1 Env of isolate MGRM-D-020 (subtype D) (HIV-1)
[28] = target: HIV-1 Env of isolate 94UG103 (subtype A) (HIV-1)
[29] = target: HIV-1 Env of isolate MGRM-D-011 (subtype D) (HIV-1)
[30] = target: HIV-1 Env of isolate MGRM-D-013 (subtype D) (HIV-1)
[31] = target: HIV-1 Env of isolate 92WR021 (subtype A) (HIV-1)
[32] = target: HIV-1 Env of isolate MGRM-AE-008 (subtype AE) (HIV-1)
[33] = target: HIV-1 Env of isolate MGRM-D-002 (subtype D) (HIV-1)
[34] = target: HIV-1 Env of isolate MGRM-D-018 (subtype D) (HIV-1)
[35] = target: HIV-1 Env of isolate 92UG114 (subtype D) (HIV-1)
[36] = target: HIV-1 Env of isolate MGRM-F1-020 (subtype F) (HIV-1)
[37] = target: HIV-1 Env of isolate MGRM-F1-021 (subtype F) (HIV-1)
[38] = target: HIV-1 Env of isolate MGRM-D-019 (subtype D) (HIV-1)
[39] = target: HIV-1 Env of isolate MGRM-F1-008 (subtype F) (HIV-1)
[40] = target: HIV-1 Env of isolate 93UG077 (subtype A) (HIV-1)
[41] = target: HIV-1 Env of isolate MGRM-D-014 (subtype D) (HIV-1)
[42] = target: HIV-1 Env of isolate 94 KE 105 (subtype AC) (HIV-1)
[43] = target: HIV-1 Env of isolate CMU02 (subtype AE) (HIV-1)
[44] = target: HIV-1 Env of isolate MGRM-F1-006 (subtype F) (HIV-1)
[45] = target: HIV-1 Env of isolate MGRM-F1-013 (subtype F) (HIV-1)
[46] = target: HIV-1 Env of isolate MGRM-D-024 (subtype D) (HIV-1)
[47] = target: HIV-1 Env of isolate MGRM-F1-014 (subtype F) (HIV-1)
[48] = target: HIV-1 Env of isolate MGRM-D-008 (subtype D) (HIV-1)
[49] = target: HIV-1 Env of isolate MGRM-F1-015 (subtype F) (HIV-1)
[50] = target: HIV-1 Env of isolate MGRM-D-004 (subtype D) (HIV-1)
[51] = target: HIV-1 Env of isolate MGRM-F1-017 (subtype F) (HIV-1)
[52] = target: HIV-1 Env of isolate MGRM-D-001 (subtype D) (HIV-1)
[53] = target: HIV-1 Env of isolate MGRM-D-005 (subtype D) (HIV-1)
[54] = target: HIV-1 Env of isolate 92WR009 (subtype A) (HIV-1)
[55] = target: HIV-1 Env of isolate 92UG037 (subtype A) (HIV-1)
[56] = target: HIV-1 Env of isolate 92WR020 (subtype A) (HIV-1)
[57] = target: HIV-1 Env of isolate MGRM-AE-007 (subtype AE) (HIV-1)
[58] = target: HIV-1 Env of isolate MGRM-D-016 (subtype D) (HIV-1)

PGT-142 (4995_E20) (antibody), sequence (VH): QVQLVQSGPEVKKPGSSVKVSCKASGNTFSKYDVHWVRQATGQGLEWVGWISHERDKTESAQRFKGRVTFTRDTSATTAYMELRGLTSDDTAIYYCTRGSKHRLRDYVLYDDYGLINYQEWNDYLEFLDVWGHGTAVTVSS
PGT-142 (4995_E20) (antibody), sequence (VL): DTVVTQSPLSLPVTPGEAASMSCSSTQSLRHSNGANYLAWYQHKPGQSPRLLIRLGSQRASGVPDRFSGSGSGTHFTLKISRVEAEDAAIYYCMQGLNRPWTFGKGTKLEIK

For PGT-142 (4995_E20) (antibody), the IC50 (pseudovirus neutralization) [1] was > 50 µg/mL, the IC50 (pseudovirus neutralization) [2] was > 50 µg/mL and the IC50 (pseudovirus neutralization) [3] was > 50 µg/mL. For the same substance, the IC50 (pseudovirus neutralization) [4] was > 50 µg/mL, the IC50 (pseudovirus neutralization) [5] was 0.013 µg/mL and the IC50 (pseudovirus neutralization) [6] was 1.78 µg/mL. For the same substance, the IC50 (pseudovirus neutralization) [7] was 2.75 µg/mL, the IC50 (pseudovirus neutralization) [8] was > 50 µg/mL and the IC50 (pseudovirus neutralization) [9] was 0.05 µg/mL. For the same substance, the IC50 (pseudovirus neutralization) [10] was 0.001 µg/mL, the IC50 (pseudovirus neutralization) [11] was 0.069 µg/mL and the IC50 (pseudovirus neutralization) [12] was > 50 µg/mL. For the same substance, the IC50 (pseudovirus neutralization) [13] was > 50 µg/mL, the IC50 (pseudovirus neutralization) [14] was 0.404 µg/mL and the IC50 (pseudovirus neutralization) [15] was > 50 µg/mL. For the same substance, the IC50 (pseudovirus neutralization) [16] was 0.602 µg/mL, the IC50 (pseudovirus neutralization) [17] was 12.5 µg/mL and the IC50 (pseudovirus neutralization) [18] was > 50 µg/mL. For the same substance, the IC50 (pseudovirus neutralization) [19] was > 50 µg/mL, the IC50 (pseudovirus neutralization) [20] was > 50 µg/mL and the IC50 (pseudovirus neutralization) [21] was 0.014 µg/mL. For the same substance, the IC50 (pseudovirus neutralization) [22] was 0.192 µg/mL, the IC50 (pseudovirus neutralization) [23] was 0.04 µg/mL and the IC50 (pseudovirus neutralization) [24] was > 50 µg/mL. For the same substance, the IC50 (pseudovirus neutralization) [25] was 0.002 µg/mL, the IC50 (pseudovirus neutralization) [26] was > 50 µg/mL and the IC50 (pseudovirus neutralization) [27] was > 50 µg/mL. For the same substance, the IC50 (pseudovirus neutralization) [28] was > 50 µg/mL, the IC50 (pseudovirus neutralization) [29] was > 50 µg/mL and the IC50 (pseudovirus neutralization) [30] was 0.221 µg/mL. For the same substance, the IC50 (pseudovirus neutralization) [31] was > 50 µg/mL, the IC50 (pseudovirus neutralization) [32] was 0.08 µg/mL and the IC50 (pseudovirus neutralization) [33] was > 50 µg/mL. The IC50 (pseudovirus neutralization) [34] was > 50 µg/mL, the IC50 (pseudovirus neutralization) [35] was > 50 µg/mL and the IC50 (pseudovirus neutralization) [36] was 0.824 µg/mL. The IC50 (pseudovirus neutralization) [37] was > 50 µg/mL, the IC50 (pseudovirus neutralization) [38] was 0.155 µg/mL and the IC50 (pseudovirus neutralization) [39] was 0.124 µg/mL. For the same substance, the IC50 (pseudovirus neutralization) [40] was > 50 µg/mL, the IC50 (pseudovirus neutralization) [41] was 0.005 µg/mL and the IC50 (pseudovirus neutralization) [42] was 0.19 µg/mL. For the same substance, the IC50 (pseudovirus neutralization) [43] was > 50 µg/mL, the IC50 (pseudovirus neutralization) [44] was 12.9 µg/mL and the IC50 (pseudovirus neutralization) [45] was 0.023 µg/mL. The IC50 (pseudovirus neutralization) [46] was > 50 µg/mL, the IC50 (pseudovirus neutralization) [47] was 0.001 µg/mL and the IC50 (pseudovirus neutralization) [48] was 0.174 µg/mL. For the same substance, the IC50 (pseudovirus neutralization) [49] was > 50 µg/mL, the IC50 (pseudovirus neutralization) [50] was > 50 µg/mL and the IC50 (pseudovirus neutralization) [51] was 23.5 µg/mL. The IC50 (pseudovirus neutralization) [52] was > 50 µg/mL, the IC50 (pseudovirus neutralization) [53] was 1.15 µg/mL and the IC50 (pseudovirus neutralization) [54] was 0.006 µg/mL. It also gave an IC50 (pseudovirus neutralization) [55] of 0.557 µg/mL, an IC50 (pseudovirus neutralization) [56] of 31.5 µg/mL and an IC50 (pseudovirus neutralization) [57] of 6.7 µg/mL. The IC50 (pseudovirus neutralization) [58] was > 50 µg/mL.
